The results in this text go back to US20200308295A1 (published 2020).

The target of this assay is T1, recombinant human C3d (human, UniProt P01024 996-1303, limits assumed).
T1 construct: domain: C3d; Also used for statements that speak only of C3d or human C3d; also called wild-type C3d
Nature of the assay: radiolabelled antibody; method and antigen not stated.

T1 sequence (P01024 996-1303 limits assumed): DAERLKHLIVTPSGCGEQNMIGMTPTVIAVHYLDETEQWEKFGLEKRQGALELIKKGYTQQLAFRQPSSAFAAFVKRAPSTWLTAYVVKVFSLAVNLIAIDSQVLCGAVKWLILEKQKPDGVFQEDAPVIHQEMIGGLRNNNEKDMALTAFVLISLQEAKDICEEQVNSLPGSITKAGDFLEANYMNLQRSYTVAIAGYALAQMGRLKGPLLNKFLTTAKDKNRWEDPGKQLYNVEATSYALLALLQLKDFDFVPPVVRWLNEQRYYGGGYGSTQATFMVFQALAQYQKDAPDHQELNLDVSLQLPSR

B1: mouse monoclonal antibody 3d29 (antibody, mouse IgG2a, V domains shown)
VH: EVQLQQSGPVLVKPGASVKMSCKASGYTFTDYYMNWVKQSHGKSLEWIGVINPYNGGTSYNQKFKGKATLTVDKSSRTAYMELNSLTSEDSAVYYCSRGGPYWGQGTTLTVSS
VL: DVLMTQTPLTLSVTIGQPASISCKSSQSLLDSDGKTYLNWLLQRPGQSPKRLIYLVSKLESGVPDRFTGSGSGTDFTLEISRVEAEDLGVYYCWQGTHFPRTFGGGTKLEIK
notes: Group I clone; Also used FITC-labelled, biotinylated, radiolabelled and conjugated to SPIO nanoparticles; told under assay; also called clone 29; C3d29
One may read the Kd as the constant that tells how readily two partners part at equilibrium. B1: the Kd turned out to be 0.43 nM.
